The values below come from article PMC4897736, “Structural and biochemical characterization of the cell fate determining nucleotidyltransferase fold protein MAB21L1” (Scientific Reports, 2016).

Data set [1] addresses T1, MAB21L1 (Homo sapiens, UniProt Q13394).
T1 construct: full length
T1 sequence (Q13394 1-359): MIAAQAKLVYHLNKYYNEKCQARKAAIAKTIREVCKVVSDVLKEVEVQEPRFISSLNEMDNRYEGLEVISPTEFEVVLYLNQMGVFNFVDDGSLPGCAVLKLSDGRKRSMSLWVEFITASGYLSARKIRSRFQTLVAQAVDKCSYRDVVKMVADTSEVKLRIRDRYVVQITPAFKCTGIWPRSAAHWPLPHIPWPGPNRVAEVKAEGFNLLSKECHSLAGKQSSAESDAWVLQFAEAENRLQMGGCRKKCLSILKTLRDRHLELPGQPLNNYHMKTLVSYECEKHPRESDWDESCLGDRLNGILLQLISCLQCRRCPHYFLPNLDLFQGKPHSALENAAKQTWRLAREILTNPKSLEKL
Put plainly: ITC, thermal shift. Type of data set: binding.

Data set [2] concerns the target T1, MAB21L1. Description: co-crystal structure ([…] Å), ITC, thermal shift. Type of data set: binding.
Data set [3] addresses T2, MAB21L1 (Homo sapiens, UniProt Q13394 1-359).
T2 sequence: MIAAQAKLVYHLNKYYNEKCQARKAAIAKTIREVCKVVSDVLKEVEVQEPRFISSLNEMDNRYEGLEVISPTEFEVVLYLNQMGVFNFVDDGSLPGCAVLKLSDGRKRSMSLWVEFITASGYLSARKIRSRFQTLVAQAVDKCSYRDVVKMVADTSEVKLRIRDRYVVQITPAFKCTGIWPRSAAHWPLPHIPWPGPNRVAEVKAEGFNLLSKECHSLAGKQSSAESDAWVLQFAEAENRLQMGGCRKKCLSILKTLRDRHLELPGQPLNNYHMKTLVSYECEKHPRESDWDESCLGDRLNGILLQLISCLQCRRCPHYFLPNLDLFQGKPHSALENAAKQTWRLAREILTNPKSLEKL
Put plainly: EMSA; 0.5 uM nucleic acid; EMSA: 20 mM Tris pH 8.0, 200 mM NaCl, 30 min on ice, 1% agarose gel, Gel-Red stain. As to conditions: protein: recombinant; tags: His-MBP tag removed by TEV; label: none (Gel-Red stain); single strand.

Data set [4] concerns the target T2, MAB21L1. Put plainly: EMSA; 1 uM nucleic acid; EMSA: 20 mM Tris pH 8.0, 200 mM NaCl, 30 min on ice, 1% agarose gel, Gel-Red stain. As to conditions: protein: recombinant; tags: His-MBP tag removed by TEV; label: none (Gel-Red stain); blunt.

In the case of `Nc1ncnc2c1ncn2[C@@H]1O[C@H](COP(=O)(O)OP(=O)(O)O)[C@@H](O)[C@H]1O` [ADP], at MAB21L1 [1], the Kd was 3100 nM.

As for `Nc1ncnc2c1ncn2[C@@H]1O[C@H](COP(=O)(O)OP(=O)(O)OP(=O)(O)O)[C@@H](O)[C@H]1O` [ATP], the equilibrium dissociation constant (Kd) at MAB21L1 [1] turned out to be 340 nM.

Take `Nc1ccn([C@@H]2O[C@H](COP(=O)(O)OP(=O)(O)OP(=O)(O)O)[C@@H](O)[C@H]2O)c(=O)n1` [CTP]: the Kd at MAB21L1 [2] came to 410 nM.

B1: 50mer ssDNA (ssDNA)
DNA: GGATACGTAACAACGCTTATGCATCGCCCCGCTACATCCCTGAGCTGAC
B1: the “apparent K (half saturation)” value with MAB21L1 [3] amounted to 6.7 µM.

B2: 50mer dsDNA (dsDNA)
DNA 1: GGATACGTAACAACGCTTATGCATCGCCCCGCTACATCCCTGAGCTGAC
DNA 2: GTCAGCTCAGGGATGTAGCGGGGCGATGCATAAGCGTTGTTACGTATCC
Turning to B2, the “apparent K (half saturation)” value with MAB21L1 [4] was determined as 6 µM.

B3: 50mer ssRNA (ssRNA)
RNA: GGAUACGUAACAACGCUUAUGCAUCGCCCCGCUACAUCCCUGAGCUGAC
B3: the “apparent K (half saturation)” value with MAB21L1 [3] was found to be 3.3 µM.

B4: 50mer dsRNA (dsRNA)
RNA 1: GGAUACGUAACAACGCUUAUGCAUCGCCCCGCUACAUCCCUGAGCUGAC
RNA 2: GUCAGCUCAGGGAUGUAGCGGGGCGAUGCAUAAGCGUUGUUACGUAUCC
For the molecule B4, the “apparent K (half saturation)” value in the data set with MAB21L1 [4] turned out to be 5 µM.
